Reference: ChEMBL document CHEMBL2074325, “The multidrug resistance protein 5 functions as an ATP-dependent export pump for cyclic nucleotides” (J Biol Chem, 2000)

Tested on: [H][C@@]12COP(=O)(O)O[C@@]1([H])[C@@H](O)[C@H](n1cnc3c(=O)[nH]c(N)nc31)O2
Assay: TP_TRANSPORTER: uptake in membrane vesicles from MRP5-expressing V79 cells
Assay type: functional, cell membranes, Membrane vesicle

Question: For “ATP-binding cassette sub-family C member 5 (Homo sapiens)”, which Km is on record?
Answer: The Km was 2.1 µM.
